Like-named read-outs stand apart in the source and are kept apart here. Marks after values point to notes of the source that are not given here.

For data set [1] the following is noted: human, in vivo.
Data set [2] is described as follows: Daratumumab pharmacokinetics in patients with light chain (AL) amyloidosis. The class given is in vivo, human.
Data set [3] deals with T1, CD38 on red blood cells (RBCs) (Homo sapiens, UniProt P28907).
T1 construct: endogenous in cells; host or cells: red blood cells (patient / reagent RBCs)
Put plainly: Interference with serological testing (Indirect Antiglobulin Test). The text has this: Since the Kell blood group system is also sensitive to DTT treatment, supply K-negative units after ruling out or identifying alloantibodies using DTT-treated RBCs.

The test system of data set [4] is patients with relapsed or refractory multiple myeloma. Put plainly: COLUMBA randomized non-inferiority study, DARZALEX FASPRO monotherapy versus intravenous daratumumab.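 Also: randomized arms stratified by body weight, myeloma type and count of earlier treatment lines, enrolled patients having a median of 4 previous lines.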
Description: The major efficacy outcome measures were ORR by the IMWG response criteria and maximum Ctrough at pre-dose Cycle 3 Day 1 [see Clinical Pharmacology (12.3)]. Randomization was stratified by body weight, myeloma type, and number of prior lines of therapy.
Patients had received a median of 4 prior lines of therapy. […] Forty-nine percent of patients were refractory both a PI and an immunomodulatory agent. Eighty-two percent of patients were refractory to their last line of prior systemic therapy.
Data set [5] has as its system pregnant mice and offspring. As to the kind of experiment: Hyaluronidase developmental toxicity in mice. It counts as in vivo. From the text:
There were no effects on pre- and post-natal development through sexual maturity in offspring of mice treated daily from implantation through lactation with 990,000 U/kg hyaluronidase subcutaneously, which is 134 times higher than the human doses.

Data set [6] relates to monkeys. As to the kind of experiment: Hyaluronidase given subcutaneously to monkeys (systemic exposure, reproductive tissues). It counts as in vivo. How it is done:
No carcinogenicity, genotoxicity, or fertility studies were conducted for recombinant human hyaluronidase. […] As hyaluronidase is a recombinant form of the endogenous human hyaluronidase, no carcinogenicity, mutagenesis, or effects on fertility are expected.

[7] abbreviates: All Grades, worsening from baseline.
[8] abbreviates: monkeys given 22,000 U/kg/week subcutaneously for 39 weeks.

Consider “Daratumumab: immunoglobulin G1 kappa (IgG1κ) human monoclonal antibody that binds to the CD38 antigen; heavy chain SEQ ID NO: 12, light chain SEQ ID NO: 13”, for which, in data set [1], the “estimated mean elimination half-life associated with linear clearance” value was 20 days; the “estimated mean linear clearance” value is on record as 119 mL/day; the “estimated mean volume of distribution for the central compartment” value is recorded as 5.2 L; the “estimated mean volume of distribution, peripheral compartment” value is given as 3.8 L. The “pharmacokinetics in geriatric patients compared to younger adult patients” value in data set [1] is reported as “No clinically meaningful differences”. The “estimated mean volume of distribution” value in data set [2] (CV 28%) is 10.8 L. In addition, the “estimated mean linear clearance” value in data set [2] (CV 42%) is listed as 210 mL/day. For the same molecule, the “estimated mean elimination half-life associated with linear clearance” value in data set [2] (CV 74%) is recorded as 28 days. For the same molecule, in data set [3], the “Indirect Antiglobulin Test (Indirect Coombs test)” value is given as “positive” and the “persistence of positive indirect antiglobulin test after the last administration” value was “up to 6 months”.

For the molecule “Intravenous Daratumumab: daratumumab 16 mg/kg administered intravenously”, the “Observed mean ± SD max Ctrough after 8th dose” value in data set [1] was 522 ± 226^a,b μg/mL. In data set [4] (All Grades), this molecule had a Back pain of 12%, a Chills of 12%, a Cough of 14% and a Diarrhea of 11%. For the same molecule, in data set [4] (All Grades), the Dyspnea is reported as 11%, the Fatigue turned out to be 16%, the Infusion reactions came to 34% and the Nausea is 11%. For the same molecule, in data set [4] (All Grades), the Pneumonia came to 10% and the Pyrexia amounted to 13%. In data set [4] (setting [7]), the Decreased hemoglobin is reported as 39%, the Decreased leukocytes is reported as 57%, the Decreased lymphocytes was 56% and the Decreased neutrophils was determined as 43%. In data set [4] (setting [7]), this molecule had a Decreased platelets of 45%. Also, in data set [4] (Grade ≥3), the Back pain is on record as 3^# %, the Chills was 1^# %, the Cough is on record as 0% and the Diarrhea was 0.4^# %. Further, in data set [4] (Grade ≥3), the Dyspnea is recorded as 1^# %, the Fatigue is 2^# %, the Infusion reactions is reported as 5^# % and the Nausea was 0.4^# %. In data set [4] (Grade ≥3), the Pneumonia is recorded as 6^@ % and the Pyrexia is listed as 1^# %. In data set [4] (Grades 3-4), this molecule came in with a Decreased hemoglobin of 16%, a Decreased leukocytes of 14%, a Decreased lymphocytes of 36% and a Decreased neutrophils of 11%. In data set [4] (Grades 3-4), this molecule came in with a Decreased platelets of 14%. In data set [4] (in vivo), the CR or better result is “(2.7%)”, the Median progression-free survival was found to be 6.1 months, the “Partial response (PR)” value was “(20%)” and the “Very good partial response (VGPR)” value is on record as “(14%)”. Besides, the “Overall response (sCR + CR + VGPR + PR)” value in data set [4] (intent-to-treat population) is recorded as “(37%)”.

B1: hyaluronidase: recombinant hyaluronidase rHuPH20 having the amino acid sequence of SEQ ID NO: 22 (protein, listed as Homo sapiens)
chain: LNFRAPPVIPNVPFLWAWNAPSEFCLGKFDEPLDMSLFSFIGSPRINATGQGVTIFYVDRLGYYPYIDSITGVTVNGGIPQKISLQDHLDKAKKDITFYMPVDNLGMAVIDWEEWRPTWARNWKPKDVYKNRSIELVQQQNVQLSLTEATEKAKQEFEKAGKDFLVETIKLGKLLRPNHLWGYYLFPDCYNHHYKKPGYNGSCFNVEIKRNDDLSWLWNESTALYPSIYLNTQQSPVAATLYVRNRVREAIRVSKIPDAKSPLPVFAYTRIVFTDQVLKFLSQDELVYTFGETVALGASGIVIWGTLSIMRSMKSCLLLDNYMETILNPYIINVTLAAKMCSQVLCQEQGVCIRKNWNSSDYLHLNPDNFAIQLEKGGKFTVRGKPTLEDLEQFSEKFYCSCYSTLSCKEKADVKDTDAVDVCIADGVCIDAFLKPPMETEEPQIFY
For the molecule B1, in data set [5] (mice treated daily during lactation with 990,000 U/kg subcutaneously), the “effects on post-natal development through sexual maturity in offspring” value is given as “no effects”. For the same molecule, the “effects on pre- and post-natal development through sexual maturity in offspring” value in data set [5] (mice treated daily from implantation through lactation with 990,000 U/kg subcutaneously) is listed as “no effects”. Besides, the “effects on embryo-fetal development” value in data set [5] (pregnant mice given 330,000 U/kg subcutaneously daily during organogenesis) was “no effects”. For the same molecule, the figures for the “systemic exposure of hyaluronidase” value in data set [6] (monkeys given 22,000 U/kg subcutaneously) and in data set [6] (setting [8]) were “No systemic exposure” and “no systemic exposure”, respectively. Further, the “effects on reproductive tissues and function” value in data set [6] (setting [8]) was “no effects”.
